# Measured values from patent US10788489.
# Key:
# [1] = molecular target: anti-histidine-tag polyclonal antibody (Bethyl Laboratories, Inc., USA); test: competitive immunochromatography, 1.1 µg/mL FBA added; calculated against added concentration, ATG-8 standard curve as reference
# [2] = molecular target: anti-histidine-tag polyclonal antibody (Bethyl Laboratories, Inc., USA); test: competitive immunochromatography, 30 µg/mL FBA added; calculated against added concentration, ATG-8 standard curve as reference
# [3] = molecular target: anti-histidine-tag polyclonal antibody (Bethyl Laboratories, Inc., USA); test: competitive immunochromatography, 0.37 µg/mL FBA added; calculated against added concentration, ATG-8 standard curve as reference
# [4] = molecular target: anti-histidine-tag polyclonal antibody (Bethyl Laboratories, Inc., USA); test: competitive immunochromatography, 1.1 µg/mL FBA added; concentration read from the ATG-8 standard curve
# [5] = molecular target: anti-histidine-tag polyclonal antibody (Bethyl Laboratories, Inc., USA); test: competitive immunochromatography, 10 µg/mL FBA added; calculated against added concentration, ATG-8 standard curve as reference
# [6] = molecular target: anti-histidine-tag polyclonal antibody (Bethyl Laboratories, Inc., USA); test: competitive immunochromatography, 10 µg/mL FBA added; concentration read from the ATG-8 standard curve
# [7] = molecular target: anti-histidine-tag polyclonal antibody (Bethyl Laboratories, Inc., USA); test: competitive immunochromatography, 0.37 µg/mL FBA added; concentration read from the ATG-8 standard curve
# [8] = molecular target: anti-histidine-tag polyclonal antibody (Bethyl Laboratories, Inc., USA); test: competitive immunochromatography, 30 µg/mL FBA added; concentration read from the ATG-8 standard curve
# [9] = molecular target: anti-histidine-tag polyclonal antibody (Bethyl Laboratories, Inc., USA); test: competitive immunochromatography, 3.3 µg/mL FBA added; calculated against added concentration, ATG-8 standard curve as reference
# [10] = molecular target: anti-histidine-tag polyclonal antibody (Bethyl Laboratories, Inc., USA); test: competitive immunochromatography, 3.3 µg/mL FBA added; concentration read from the ATG-8 standard curve
binder,measurement,setting,value
"fructose bisphosphate aldolase comprising histidine-tag (Cusabio, USA) (enzyme, UniProt P04075 2-364, looked up, species assumed, His-tag) Fructose-bisphosphate aldolase A: PYQYPALTPEQKKELSDIAHRIVAPGKGILAADESTGSIAKRLQSIGTENTEENRRFYRQLLLTADDRVNPCIGGVILFHETLYQKADDGRPFPQVIKSKGGVVGIKVDKGVVPLAGTNGETTTQGLDGLSERCAQYKKDGADFAKWRCVLKIGEHTPSALAIMENANVLARYASICQQNGIVPIVEPEILPDGDHDLKRCQYVTEKVLAAVYKALSDHHIYLEGTLLKPNMVTPGHACTQKFSHEEIAMATVTALRRTVPPAVTGITFLSGGQSEEEASINLNAINKCPLLKPWALTFSYGRALQASALKAWGGKKENLKAAQEEYVKRALANSLACQGKYTPSGQAGAAASESLFVSNHAY",Recovery,[1],0.13
same,Recovery,[2],0.39
same,Recovery,[3],0.15
same,Calculated concentration,[4],0.14 µg/mL
same,Recovery,[5],0.18
same,Calculated concentration,[6],1.81 µg/mL
same,Calculated concentration,[7],0.056 µg/mL
same,Calculated concentration,[8],11.7 µg/mL
same,Recovery,[9],0.15
same,Calculated concentration,[10],0.51 µg/mL
